From paper PMC6454087

Molecular target: mouse rec1c sNASP variant protein (V281I, L282F) (mouse)
Assay: BLI; Octet K2, 30 C; sNASP WT or variant immobilised on aminopropylsilane (APS) biosensors, histones in assay buffer at various concentrations (62.5 to 1,000 nM shown for H4), association 240 s; n = 4

Row | Substance | Kd [nM] | kon [M⁻¹ s⁻¹]
1 | mouse H3.1/H4 tetramer complex (from UniProt P68433 1-136; P62806 1-103) | 14.5 | 37200
2 | mouse histone H4 (from UniProt P62806 1-103) (natural protein) | 23.2 | 15900
